{
  "source": "paper PMC4090420",
  "about": "(Biochemistry, 2013)",
  "binders": {"B1": {"name": "2F5–17 αIM (designed binder)", "chain": "VSDVPRDLEVVAATPTSLLISWPYDKWAYRYYRITYGETGGNSPVQEFTVPGSKSTATISGLKPGVDYTITVYAVTRWYWVPHYSKPISINYRT", "modifications": "biotin on the birA site"}},
  "molecular_target": "2F5 MAb (human)",
  "test": "ELISA",
  "data": [
    {"binder": "B1", "values": [
      {"measurement": "fold lower affinity than the MPER peptide", "value": "~10", "unit": "fold"}
    ]}
  ]
}
